Assay results published in IntAct's records for PubMed 26586190.

B1: Sestrin-2 (Homo sapiens), P58004 (parent)
chain: MIVADSECRAELKDYLRFAPGGVGDSGPGEEQRESRARRGPRGPSAFIPVEEVLREGAESLEQHLGLEALMSSGRVDNLAVVMGLHPDYFTSFWRLHYLLLHTDGPLASSWRHYIAIMAAARHQCSYLVGSHMAEFLQTGGDPEWLLGLHRAPEKLRKLSEINKLLAHRPWLITKEHIQALLKTGEHTWSLAELIQALVLLTHCHSLSSFVFGCGILPEGDADGSPAPQAPTPPSEQSSPPSRDPLNNSGGFESARDVEALMERMQQLQESLLRDEGTSQEEMESRFELEKSESLLVTPSADILEPSPHPDMLCFVEDPTFGYEDFTRRGAQAPPTFRAQDYTWEDHGYSLIQRLYPEGGQLLDEKFQAAYSLTYNTIAMHSGVDTSVLRRAIWNYIHCVFGIRYDDYDYGEVNQLLERNLKVYIKTVACYPEKTTRRMYNLFWRHFRHSEKVHVNLLLLEARMQAALLYALRAITRYMT
partner: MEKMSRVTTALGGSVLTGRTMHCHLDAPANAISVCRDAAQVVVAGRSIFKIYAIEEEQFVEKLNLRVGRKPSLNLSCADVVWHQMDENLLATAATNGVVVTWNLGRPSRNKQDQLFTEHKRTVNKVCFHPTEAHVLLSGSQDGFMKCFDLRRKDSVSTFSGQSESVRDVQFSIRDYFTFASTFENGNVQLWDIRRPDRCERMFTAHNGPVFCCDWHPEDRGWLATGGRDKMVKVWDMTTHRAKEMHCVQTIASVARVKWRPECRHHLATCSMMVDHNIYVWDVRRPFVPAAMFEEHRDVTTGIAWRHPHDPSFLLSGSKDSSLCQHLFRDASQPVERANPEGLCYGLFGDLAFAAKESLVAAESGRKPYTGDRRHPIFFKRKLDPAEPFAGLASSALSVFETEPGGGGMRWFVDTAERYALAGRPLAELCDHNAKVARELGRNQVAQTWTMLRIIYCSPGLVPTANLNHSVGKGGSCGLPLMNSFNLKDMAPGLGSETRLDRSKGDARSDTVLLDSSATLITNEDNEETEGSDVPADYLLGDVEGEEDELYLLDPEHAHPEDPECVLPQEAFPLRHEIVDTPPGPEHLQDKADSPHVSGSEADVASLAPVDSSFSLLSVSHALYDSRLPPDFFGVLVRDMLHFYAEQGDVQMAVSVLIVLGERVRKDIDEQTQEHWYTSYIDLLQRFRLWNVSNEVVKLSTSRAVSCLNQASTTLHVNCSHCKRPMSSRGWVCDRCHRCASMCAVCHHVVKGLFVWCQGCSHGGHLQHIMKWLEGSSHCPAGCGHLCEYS

Variants of: B1
Settings: with wdr24_human WDR24, Q96S15

| Variant | effect of a mutation on the interaction |
| --- | --- |
| D406A;D407A | disrupting interaction strength |
